Reference: the supplement of paper PMC9170038

Test system: MS2 coat protein
Assay: apparent KD of MS2 coat protein; designed switch direction (-1 OFF switch, 1 ON switch): -1; higher = weaker reporter binding
How it was run: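 Stalled E. coli RNA polymerase transcribed designed RNA switches on Illumina chips, which were then titrated with SNAP-549-labelled MS2 coat protein, doubling from 0.7 or 1.5 nM to 3 µM. Steps lasted from 0.8–1.5 h at the lowest concentration to 10–20 min at the highest. The apparent KD is each design's median over clusters of curve-fitted normalised fluorescence.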

[1] = input ligand: microRNA oligo, concentration not stated
[2] = Eterna round: R95, input ligand: FMN 200 uM
[3] = Eterna round: R95, input ligand: microRNA oligo, concentration not stated
[4] = Eterna round: R95, input ligand: none

Row | Sequence | apparent KD of MS2 coat protein (input ligand: FMN 200 uM) | apparent KD of MS2 coat protein [1] | apparent KD of MS2 coat protein (input ligand: none) | apparent KD of MS2 coat protein [2] | apparent KD of MS2 coat protein [3] | apparent KD of MS2 coat protein [4]
1 | UUCUUAUAUGAAGGAUAUACUUAACAUGAGGAUCACCCAUGUGGUGUUGUGAGUGAGUGAGUUUAGUAGAAGGUCAAUUCUUUU [JMF's solution 95] (Eterna round: R96, puzzle: Exclusion NG 2) | 818 nM | 326 nM | 355 nM | – | – | –
2 | GUUUUAUAUGAAGGAUAUACUUAACAUGAGGAUCACCCAUGUGGUGUUGUGAGUGAGUGAGUUUAGUAGAAGGUCAAGUAUUUU [JMF's solution 56] (Eterna round: R96, puzzle: Exclusion NG 2) | 335 nM | 231 nM | 319 nM | – | – | –
3 | CGGAGCAGAGGGAGAUCCAACAUGAGGAUCACCCAUGUCUCAUAAGCUUUUUGCUCAUCUUAUUGUACCUUGGUGCU [JL ViennaUCT Edcesobi mod 5] (puzzle: Sensor v3, turn-off variant 1) | – | – | – | 37.3 nM | 15.4 nM | 46.4 nM
4 | GGUCAGAUGGUAGGAUAUCCAUAUCGAGUGACCCUUUCAUAACAUGAGGAUCACCCAUGUCGGUGGGAGAAGGGCCGUAUGGCG [salish99_ExNG02_R04_022] (Eterna round: R96, puzzle: Exclusion NG 2) | 69.8 nM | 34.9 nM | 51.3 nM | – | – | –
5 | GGCAUCGGAGGAUAUACUUAUGGUGAUGUUCGAAGCUUUCUACUUGAGGAUCACCCAAGUAGAAGGCCGAUGCC [jl-ex2.4.78 ViennaUCT mod] (Eterna round: R97, puzzle: Exclusion 2) | 5.28 nM | – | 17.4 nM | – | – | –
6 | UGAGCUGAAGGAUAUGCGUAAUCACGGUGACGUGUAGAUCUACAUGAGGAUCACCCAUGUAGAAGGUCAGUUCU [Mat - Exclusion 2 - JL Mod - D33] (Eterna round: R97, puzzle: Exclusion 2) | 17 nM | – | 16.1 nM | – | – | –
7 | GACUGAGCAGGAUAUACAUGAGGAUCACCCAUGUUGGUUCAGCGACGAUAGUCGCAAUGUAGAAGGGCUCAGUC [E3/9-D2] (Eterna round: R97, puzzle: Exclusion 3) | 273 nM | – | 203 nM | – | – | –
8 | UUUUACAUAGGAUAUAGUUGCUUUUACAUGAGGAUCACCCAUGUCUCUCCUCUCUCUCUUCUAGAAGGAUGUUUCU [JR_E5_Sub011] (Eterna round: R96, puzzle: Exclusion 5) | 55.3 nM | 35.7 nM | 47 nM | – | – | –
9 | GAUCAACAUGAGGAUCACCCAUGUGAGGAUAUGAUACUAUGUACUUCGGUACAUAGUAUCAGAAGGCAUAUAAA [Ex1-3: 37] (puzzle: Exclusion 1) | – | – | – | – | 40.4 nM | –
10 | GCCAGAGGAGGAUAUCUAAUAUAUCACAUGAGGAUCACCCAUGUCCAGCGAAAGCUGGAGGGAGAAGGCCUCUGGC [Fiskers Ex 5 - 23] (puzzle: Exclusion 5) | – | – | – | 46 nM | 98.2 nM | 78.2 nM
11 | UUAACGUCAGGAUAUGCUUAAUAUAUUAUAUUAUAAUAUAUACAUGAGGAUCACCCAUGUAGAAGGGACAUUAU [LRO-Excl2-02-Fireball XL5] (Eterna round: R97, puzzle: Exclusion 2) | 34.1 nM | – | 52.1 nM | – | – | –
12 | CUCCAUGCCCAGGCUUAGAACAUGAGGAUCACCCAUGUAGAUCCAGAAAAUUUGCUCGUCAGGCAAUUUAUAGAUUG [Eternabot (L1) Solution 9] (Eterna round: R97, puzzle: Sensor, turn-off variant 1) | 500 nM | – | 687 nM | – | – | –
13 | AUCAUGUAAGGAUAUCUUACAUGGAUCGAAAGAUCAAGUUAAGAGAAGGUACAUGAGGAUCACCCAUGUAUAAC [Ex4-3: 34] (puzzle: Exclusion 4) | – | – | – | 21 nM | 22.3 nM | 20.8 nM
14 | UAUGUGUCAGGAUAUUAGUAGUAAAUAAAUAAAAUUAUUACUGAGAAGGGACAUGAGGAUCACCCAUGUACCUU [JR_Ex4_Sub051] (Eterna round: R97, puzzle: Exclusion 4) | 22.6 nM | – | 16.2 nM | – | – | –
15 | CCUCAGUCACAGGAUAUGCUCAUCUAAUGAUGAGCAGAAGGGUGAACAUGAGGAUCACCCAUGUUUACGAGGGU [Omei Ex6 E7] (Eterna round: R97, puzzle: Exclusion 6) | 407 nM | – | 555 nM | – | – | –
16 | AAUUAUUUUUGAGGAUAUCGUGGUGAAACACCACGAGAAGGCAAGAUACACAUGAGGAUCACCCAUGUGAGCCUGAUGCUUAUG [Ex NG1 #52] (Eterna round: R96, puzzle: Exclusion NG 1) | – | 13.2 nM | – | – | – | –
17 | AAUAACAGAGGAUAUACUAUUUUAUGUGUUUAUUGUUUUGAACAUGAGGAUCACCCAUGUAGAAGGCUGAUUAA [JMF 51] (puzzle: Exclusion 2) | – | – | – | – | 35.3 nM | –
18 | AAGUAGCAUGCAGGAUAUGGUAAUCGAACGUUACCAGAAGGGCAUGAGGAUCACCCAUGUUCUCAUUUGUAAGAACAGAUGUCU [Ex NG1 #7] (Eterna round: R96, puzzle: Exclusion NG 1) | 251 nM | 110 nM | 94.4 nM | – | – | –
19 | UUUUAACAUGAGGAUCACCCAUGUGAGGAUAUCGAAAUUUAUAUUAAUAUUUUUAAUUCGAGAAGGCACAUUUU [JMF 69] (puzzle: Exclusion 1) | – | – | – | – | 136 nM | –
20 | GAUUAUGCGAGCUUUAGGGACAUGAGGAUCACCCAUGUUCGUCUUAUUAAUCUGGGUGCACUGACAUACCUAAAUCU [JMF 92] (puzzle: Sensor v3, turn-off variant 1) | – | – | – | 90.9 nM | 81.9 nM | 132 nM
21 | UUUAAGGCUGAGGAUAUGUGGUCCGCCAAAGACAUAGAAGGUAGCACAUGAGGAUCACCCAUGUCACGAAAAGU [Eternabot (L1) Solution 81] (Eterna round: R97, puzzle: Exclusion 6) | 54.3 nM | – | 52.7 nM | – | – | –
22 | AGAGAUGCCCAUGGCCGCAAGCUUUUUGCUUGUCUUACCACAUGAGGAUCACCCAUGUGACAUGGGCUCCUUAUAAU [Essoator] (puzzle: Sensor v3, turn-off variant 2) | – | – | – | 13.5 nM | 9.99 nM | 12.1 nM
23 | AGCCCUGCAGGAUAUGCCCGGGAUAACAUGAGGAUCACCCAUGUGACUGAUUGUUAUUCUGCAGAAGGGUAUGGGA [JL-EX5-4.16 ViennaUCT mod] (Eterna round: R97, puzzle: Exclusion 5) | 404 nM | – | 322 nM | – | – | –
24 | AUAUUAAGUGUGAGGAUAUGCUGGUCCUUGGAUCAGCAGAAGGCACAUGAGGAUCACCCAUGUAAUAUAUUUAU [Mat - Exclusion 4 - JL Mod - D47] (puzzle: Brourd's mod of Exclusion 4) | – | – | – | – | 78.6 nM | –
25 | GUUAAACAUGAGGAUCACCCAUGUAAGGAUAUGCUGAGGUAGCGCUGACGUGAAUGAAGCAGAAGGUACAAAUG [Mat - Mod of JL D64] (puzzle: Exclusion 1) | – | – | – | 66.4 nM | 93.3 nM | 62 nM
26 | AGGUGUAGAGGAUAUACAGUGUAUUACAUGAGGAUCACCCAUGUCCUUCAAUGGGUGUCAGUAGAAGGCUACACCA [Omei Ex5 C2] (Eterna round: R97, puzzle: Exclusion 5) | 255 nM | – | 1660 nM | – | – | –
